Experiments:
[1] = molecular target: T1, Permanent N-terminal CNP-34 PEG 5 kDa conjugate 14e (not fully specified)
T1 chain: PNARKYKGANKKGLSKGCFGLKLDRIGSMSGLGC

[2] = molecular target: T2, Permanent N-terminal CNP-38 PEG 5 kDa conjugate 15e (not fully specified)
T2 chain: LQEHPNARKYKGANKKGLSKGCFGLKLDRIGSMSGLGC

[3] = molecular target: T3, Permanent Lys26 CNP-38 PEG4x10 kDa conjugate 12g (not fully specified)
T3 chain: T2 chain

Measured: half life norm. [h] (in vitro NEP digest)

B1: recombinant human Neutral Endopeptidase (NEP) (protein)
chain: YDDGICKSSDCIKSAARLIQNMDATTEPCTDFFKYACGGWLKRNVIPETSSRYGNFDILRDELEVVLKDVLQEPKTEDIVAVQKAKALYRSCINESAIDSRGGEPLLKLLPDIYGWPVATENWEQKYGASWTAEKAIAQLNSKYGKKVLINLFVGTDDKNSVNHVIHIDQPRLGLPSRDYYECTGIYKEACTAYVDFMISVARLIRQEERLPIDENQLALEMNKVMELEKEIANATAKPEDRNDPMLLYNKMTLAQIQNNFSLEINGKPFSWLNFTNEIMSTVNISITNEEDVVVYAPEYLTKLKPILTKYSARDLQNLMSWRFIMDLVSSLSRTYKESRNAFRKALYGTTSETATWRRCANYVNGNMENAVGRLYVEAAFAGESKHVVEDLIAQIREVFIQTLDDLTWMDAETKKRAEEKALAIKERIGYPDDIVSNDNKLNNEYLELNYKEDEYFENIIQNLKFSQSKQLKKLREKVDKDEWISGAAVVNAFYSSGRNQIVFPAGILQPPFFSAQQSNSLNYGGIGMVIGHEITHGFDDNGRNFNKDGDLVDWWTQQSASNFKEQSQCMVYQYGNFSWDLAGGQHLNGINTLGENIADNGGLGQAYRAYQNYIKKNGEEKLLPGLDLNHKQLFFLNFAQVWCGTYRPEYAVNSIKTDVHSPGNFRIIGTLQNSAEFSEAFHCRKNSYMNPEKKCRVW
Almost no proteolysis after 4 days.: all assays above
